According to patent US20220169728A1 (AB THERAPEUTICS, published 2022):

T1: CD55 (UniProt P08174 35-353, limits assumed)
T1 construct: whole, on cells; also called CD55 on Rituximab resistant Raji cells (RRCL)
T1 sequence (looked up): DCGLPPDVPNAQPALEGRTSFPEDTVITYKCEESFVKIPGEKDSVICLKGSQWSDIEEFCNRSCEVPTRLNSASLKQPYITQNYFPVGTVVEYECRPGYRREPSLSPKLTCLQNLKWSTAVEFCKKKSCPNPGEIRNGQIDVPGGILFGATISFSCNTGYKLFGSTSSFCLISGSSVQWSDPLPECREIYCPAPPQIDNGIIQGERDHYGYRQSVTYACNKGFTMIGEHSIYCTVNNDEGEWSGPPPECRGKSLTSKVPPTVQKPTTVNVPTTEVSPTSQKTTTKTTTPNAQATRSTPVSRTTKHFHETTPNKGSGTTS

T2: CD20 (UniProt P11836 1-297, limits assumed)
T2 construct: whole, on cells; also called CD20 on Raji cells
T2 sequence (looked up): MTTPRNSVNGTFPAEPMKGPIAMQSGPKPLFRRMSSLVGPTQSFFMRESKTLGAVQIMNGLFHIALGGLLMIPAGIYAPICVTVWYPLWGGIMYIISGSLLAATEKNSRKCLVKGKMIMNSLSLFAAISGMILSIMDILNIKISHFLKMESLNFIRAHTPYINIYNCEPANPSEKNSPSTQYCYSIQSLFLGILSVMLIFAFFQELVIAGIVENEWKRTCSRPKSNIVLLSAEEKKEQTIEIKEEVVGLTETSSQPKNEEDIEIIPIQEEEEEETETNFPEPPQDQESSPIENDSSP


Target: T1, CD55
Test: binding at 5 µg/ml against the unmutated antibody (SEQ ID NO: 14 + 15); format not stated

Function remaining percentage (5 µg/ml) [%] | Binder
95 | anti-CD55 antibody with CD55VH (SEQ ID NO: 14) N52S and VL (SEQ ID NO: 15) (antibody, V domains shown, also called Test 2) VH: QVKLQESGGGLVQPGGSLKLSCAASGFTFSGYGMSWIRQTPDKRLEWVATISSGGSYTYYSDSVKGRFTISRDNVKNTLYLQMSSLKSEDTAMYYCARRNGTLYYYLMDYWGRGTLVTVSS VL: QSVLTQPPSASGSPGQSVTISCTGTSSDVGGYNYVSWYQQHPGKAPKFMIYDVSKRPSGVSNRFSGSKSGNTASLTISGVQAEDEADYYCSSYTSASTVIFGGGTKLTVL
21 | anti-CD55 antibody with CD55VH (SEQ ID NO: 14) N52V and VL (SEQ ID NO: 15) (antibody, V domains shown, also called Test 5) VH: QVKLQESGGGLVQPGGSLKLSCAASGFTFSGYGMSWIRQTPDKRLEWVATIVSGGSYTYYSDSVKGRFTISRDNVKNTLYLQMSSLKSEDTAMYYCARRNGTLYYYLMDYWGRGTLVTVSS VL: QSVLTQPPSASGSPGQSVTISCTGTSSDVGGYNYVSWYQQHPGKAPKFMIYDVSKRPSGVSNRFSGSKSGNTASLTISGVQAEDEADYYCSSYTSASTVIFGGGTKLTVL
17 | anti-CD55 antibody with CD55VH (SEQ ID NO: 14) N52W and VL (SEQ ID NO: 15) (antibody, V domains shown, also called Test 7) VH: QVKLQESGGGLVQPGGSLKLSCAASGFTFSGYGMSWIRQTPDKRLEWVATIWSGGSYTYYSDSVKGRFTISRDNVKNTLYLQMSSLKSEDTAMYYCARRNGTLYYYLMDYWGRGTLVTVSS VL: QSVLTQPPSASGSPGQSVTISCTGTSSDVGGYNYVSWYQQHPGKAPKFMIYDVSKRPSGVSNRFSGSKSGNTASLTISGVQAEDEADYYCSSYTSASTVIFGGGTKLTVL
17 | anti-CD55 antibody with CD55VH (SEQ ID NO: 14) N52Y and VL (SEQ ID NO: 15) (antibody, V domains shown, also called Test 9) VH: QVKLQESGGGLVQPGGSLKLSCAASGFTFSGYGMSWIRQTPDKRLEWVATIYSGGSYTYYSDSVKGRFTISRDNVKNTLYLQMSSLKSEDTAMYYCARRNGTLYYYLMDYWGRGTLVTVSS VL: QSVLTQPPSASGSPGQSVTISCTGTSSDVGGYNYVSWYQQHPGKAPKFMIYDVSKRPSGVSNRFSGSKSGNTASLTISGVQAEDEADYYCSSYTSASTVIFGGGTKLTVL
83 | anti-CD55 antibody with CD55VH (SEQ ID NO: 14) N100A and VL (SEQ ID NO: 15) (antibody, V domains shown, also called Test 20) VH: QVKLQESGGGLVQPGGSLKLSCAASGFTFSGYGMSWIRQTPDKRLEWVATINSGGSYTYYSDSVKGRFTISRDNVKNTLYLQMSSLKSEDTAMYYCARRAGTLYYYLMDYWGRGTLVTVSS VL: QSVLTQPPSASGSPGQSVTISCTGTSSDVGGYNYVSWYQQHPGKAPKFMIYDVSKRPSGVSNRFSGSKSGNTASLTISGVQAEDEADYYCSSYTSASTVIFGGGTKLTVL
17 | anti-CD55 antibody with CD55VH (SEQ ID NO: 14) N100E and VL (SEQ ID NO: 15) (antibody, V domains shown, also called Test 24) VH: QVKLQESGGGLVQPGGSLKLSCAASGFTFSGYGMSWIRQTPDKRLEWVATINSGGSYTYYSDSVKGRFTISRDNVKNTLYLQMSSLKSEDTAMYYCARREGTLYYYLMDYWGRGTLVTVSS VL: QSVLTQPPSASGSPGQSVTISCTGTSSDVGGYNYVSWYQQHPGKAPKFMIYDVSKRPSGVSNRFSGSKSGNTASLTISGVQAEDEADYYCSSYTSASTVIFGGGTKLTVL
86 | anti-CD55 antibody with CD55VH (SEQ ID NO: 14) N100F and VL (SEQ ID NO: 15) (antibody, V domains shown, also called Test 18) VH: QVKLQESGGGLVQPGGSLKLSCAASGFTFSGYGMSWIRQTPDKRLEWVATINSGGSYTYYSDSVKGRFTISRDNVKNTLYLQMSSLKSEDTAMYYCARRFGTLYYYLMDYWGRGTLVTVSS VL: QSVLTQPPSASGSPGQSVTISCTGTSSDVGGYNYVSWYQQHPGKAPKFMIYDVSKRPSGVSNRFSGSKSGNTASLTISGVQAEDEADYYCSSYTSASTVIFGGGTKLTVL
72 | anti-CD55 antibody with CD55VH (SEQ ID NO: 14) N100H and VL (SEQ ID NO: 15) (antibody, V domains shown, also called Test 21) VH: QVKLQESGGGLVQPGGSLKLSCAASGFTFSGYGMSWIRQTPDKRLEWVATINSGGSYTYYSDSVKGRFTISRDNVKNTLYLQMSSLKSEDTAMYYCARRHGTLYYYLMDYWGRGTLVTVSS VL: QSVLTQPPSASGSPGQSVTISCTGTSSDVGGYNYVSWYQQHPGKAPKFMIYDVSKRPSGVSNRFSGSKSGNTASLTISGVQAEDEADYYCSSYTSASTVIFGGGTKLTVL
62 | anti-CD55 antibody with CD55VH (SEQ ID NO: 14) N100I and VL (SEQ ID NO: 15) (antibody, V domains shown, also called Test 23) VH: QVKLQESGGGLVQPGGSLKLSCAASGFTFSGYGMSWIRQTPDKRLEWVATINSGGSYTYYSDSVKGRFTISRDNVKNTLYLQMSSLKSEDTAMYYCARRIGTLYYYLMDYWGRGTLVTVSS VL: QSVLTQPPSASGSPGQSVTISCTGTSSDVGGYNYVSWYQQHPGKAPKFMIYDVSKRPSGVSNRFSGSKSGNTASLTISGVQAEDEADYYCSSYTSASTVIFGGGTKLTVL
106 | anti-CD55 antibody with CD55VH (SEQ ID NO: 14) N100K and VL (SEQ ID NO: 15) (antibody, V domains shown, also called Test 13) VH: QVKLQESGGGLVQPGGSLKLSCAASGFTFSGYGMSWIRQTPDKRLEWVATINSGGSYTYYSDSVKGRFTISRDNVKNTLYLQMSSLKSEDTAMYYCARRKGTLYYYLMDYWGRGTLVTVSS VL: QSVLTQPPSASGSPGQSVTISCTGTSSDVGGYNYVSWYQQHPGKAPKFMIYDVSKRPSGVSNRFSGSKSGNTASLTISGVQAEDEADYYCSSYTSASTVIFGGGTKLTVL
92 | anti-CD55 antibody with CD55VH (SEQ ID NO: 14) N100L and VL (SEQ ID NO: 15) (antibody, V domains shown, also called Test 17) VH: QVKLQESGGGLVQPGGSLKLSCAASGFTFSGYGMSWIRQTPDKRLEWVATINSGGSYTYYSDSVKGRFTISRDNVKNTLYLQMSSLKSEDTAMYYCARRLGTLYYYLMDYWGRGTLVTVSS VL: QSVLTQPPSASGSPGQSVTISCTGTSSDVGGYNYVSWYQQHPGKAPKFMIYDVSKRPSGVSNRFSGSKSGNTASLTISGVQAEDEADYYCSSYTSASTVIFGGGTKLTVL
86 | anti-CD55 antibody with CD55VH (SEQ ID NO: 14) N100M and VL (SEQ ID NO: 15) (antibody, V domains shown, also called Test 19) VH: QVKLQESGGGLVQPGGSLKLSCAASGFTFSGYGMSWIRQTPDKRLEWVATINSGGSYTYYSDSVKGRFTISRDNVKNTLYLQMSSLKSEDTAMYYCARRMGTLYYYLMDYWGRGTLVTVSS VL: QSVLTQPPSASGSPGQSVTISCTGTSSDVGGYNYVSWYQQHPGKAPKFMIYDVSKRPSGVSNRFSGSKSGNTASLTISGVQAEDEADYYCSSYTSASTVIFGGGTKLTVL
62 | anti-CD55 antibody with CD55VH (SEQ ID NO: 14) N100Q (printed "N1000") and VL (SEQ ID NO: 15) (antibody, V domains shown, The cell prints "N1000"; also called Test 22) VH: QVKLQESGGGLVQPGGSLKLSCAASGFTFSGYGMSWIRQTPDKRLEWVATINSGGSYTYYSDSVKGRFTISRDNVKNTLYLQMSSLKSEDTAMYYCARRQGTLYYYLMDYWGRGTLVTVSS VL: QSVLTQPPSASGSPGQSVTISCTGTSSDVGGYNYVSWYQQHPGKAPKFMIYDVSKRPSGVSNRFSGSKSGNTASLTISGVQAEDEADYYCSSYTSASTVIFGGGTKLTVL
96 | anti-CD55 antibody with CD55VH (SEQ ID NO: 14) N100T and VL (SEQ ID NO: 15) (antibody, V domains shown, also called Test 14) VH: QVKLQESGGGLVQPGGSLKLSCAASGFTFSGYGMSWIRQTPDKRLEWVATINSGGSYTYYSDSVKGRFTISRDNVKNTLYLQMSSLKSEDTAMYYCARRTGTLYYYLMDYWGRGTLVTVSS VL: QSVLTQPPSASGSPGQSVTISCTGTSSDVGGYNYVSWYQQHPGKAPKFMIYDVSKRPSGVSNRFSGSKSGNTASLTISGVQAEDEADYYCSSYTSASTVIFGGGTKLTVL
94 | anti-CD55 antibody with CD55VH (SEQ ID NO: 14) N100V and VL (SEQ ID NO: 15) (antibody, V domains shown, also called Test 15) VH: QVKLQESGGGLVQPGGSLKLSCAASGFTFSGYGMSWIRQTPDKRLEWVATINSGGSYTYYSDSVKGRFTISRDNVKNTLYLQMSSLKSEDTAMYYCARRVGTLYYYLMDYWGRGTLVTVSS VL: QSVLTQPPSASGSPGQSVTISCTGTSSDVGGYNYVSWYQQHPGKAPKFMIYDVSKRPSGVSNRFSGSKSGNTASLTISGVQAEDEADYYCSSYTSASTVIFGGGTKLTVL
95 | anti-CD55 antibody with CD55VH (SEQ ID NO: 14) N100Y and VL (SEQ ID NO: 15) (antibody, V domains shown, also called Test 16) VH: QVKLQESGGGLVQPGGSLKLSCAASGFTFSGYGMSWIRQTPDKRLEWVATINSGGSYTYYSDSVKGRFTISRDNVKNTLYLQMSSLKSEDTAMYYCARRYGTLYYYLMDYWGRGTLVTVSS VL: QSVLTQPPSASGSPGQSVTISCTGTSSDVGGYNYVSWYQQHPGKAPKFMIYDVSKRPSGVSNRFSGSKSGNTASLTISGVQAEDEADYYCSSYTSASTVIFGGGTKLTVL
17 | anti-CD55 antibody with CD55VH (SEQ ID NO: 14) T102G and VL (SEQ ID NO: 15) (antibody, V domains shown, also called Test 27) VH: QVKLQESGGGLVQPGGSLKLSCAASGFTFSGYGMSWIRQTPDKRLEWVATINSGGSYTYYSDSVKGRFTISRDNVKNTLYLQMSSLKSEDTAMYYCARRNGGLYYYLMDYWGRGTLVTVSS VL: QSVLTQPPSASGSPGQSVTISCTGTSSDVGGYNYVSWYQQHPGKAPKFMIYDVSKRPSGVSNRFSGSKSGNTASLTISGVQAEDEADYYCSSYTSASTVIFGGGTKLTVL
98 | anti-CD55 antibody with CD55VH (SEQ ID NO: 14) T102M and VL (SEQ ID NO: 15) (antibody, V domains shown, also called Test 26) VH: QVKLQESGGGLVQPGGSLKLSCAASGFTFSGYGMSWIRQTPDKRLEWVATINSGGSYTYYSDSVKGRFTISRDNVKNTLYLQMSSLKSEDTAMYYCARRNGMLYYYLMDYWGRGTLVTVSS VL: QSVLTQPPSASGSPGQSVTISCTGTSSDVGGYNYVSWYQQHPGKAPKFMIYDVSKRPSGVSNRFSGSKSGNTASLTISGVQAEDEADYYCSSYTSASTVIFGGGTKLTVL

Target: T2, CD20
Test: flow cytometry binding to CD20+ Raji cells, antibody titration, Cy3 goat anti-human IgG detection

binding result | Binder
no binding (tested: 10 µg/ml) | parental anti-CD3 IgG (Parental CD3) (antibody, V domains shown, IgG; also called MAb 12F6; CD3 parental Ab) VH: QVQLQQSGAELARPGASVKMSCKASGYTFTSYTMHWVKQRPGQGLEWIGYINPSSGYTKYNQKFKDKATLTADKSSSTAYMQLSSLTSEDSAVYYCARWQDYDVYFDYWGQGTTLTVSS VL: QIVLSQSPAILSASPGEKVTMTCRASSSVSYMHWYQQKPGSSPKPWIYATSNLASGVPARFSGSGSGTSYSLTISRVEAEDAATYYCQQWSSNPPTFGGGTKLETKR
